Here are results for one molecule from patent US20170030918A1 (MOR NUCO ENTERPRISES, published 2017).

Test [1] addresses T1, serotransferrin (human, UniProt P02787 20-698).
T1 construct: Protein from patient sera on a denaturing 2-D blot; also called Serrotransferrin
Put plainly: 2-D gel / western blot of patient sera. As for the experimental part: (§1) Serum was prepared from 5 ml of blood collected by venipuncture (with tourniquet) in standard B & D 13×100 (7 ml) vacutainer clot tubes (or equivalent) with or without hemoguard closure. After approximately 30 min at room temperature to allow for clotting, the clot was pelleted by centrifugation for 5 to 10 min at 2,500 to 3,000 rpm. Clot-free serum was decanted into a clean tube, labeled and analyzed fresh or stored frozen.
(§2) For western blot analysis, 30 μl of sera was added to 120 μl of Rehydration Buffer (7 M urea, 2 M thiourea, 2% (w/v) CHAPS [(3-[(3-cholamidopropyl)dimethylammonio]-1-propane-sulfonate), a nondenaturing zwitterionic detergent], 0.5% (w/v) ASB-14 (amidosulfobetaine-14, a zwitterionic detergent), 0.5% (v/v) ampholytes pH 3-10 (Bio-Rad), 0.5% (v/v) immobilized pH gradient (IPG) buffer pH 3-10 (Amersham-Pharmacia Biotech) and 65 mM dithiothreitol). The samples were quickly vortexed to mix sera with Rehydration Buffer. Four to six mg of protein were loaded for analysis. The samples were electrophoresed in the first dimension by using a commercial flatbed electrophoresis system (Ettan IPGphor 3, Amersham-Pharmacia Biotech) with IPG dry strips (Amersham). A linear pH range of 3 to 10 on 7 cm IPG strips was used. The IPG strips were rehydrated with the samples overnight at room temperature. […]

Test [2] has as its target T2, serum albumin (human, UniProt P02768 25-609).
T2 construct: Protein from patient sera on a denaturing 2-D blot; also called Ab
Description: 2-D gel electrophoresis / western blot of patient sera. As for the experimental part:
as §1, §2

T1 sequence (P02787 20-698 limits assumed): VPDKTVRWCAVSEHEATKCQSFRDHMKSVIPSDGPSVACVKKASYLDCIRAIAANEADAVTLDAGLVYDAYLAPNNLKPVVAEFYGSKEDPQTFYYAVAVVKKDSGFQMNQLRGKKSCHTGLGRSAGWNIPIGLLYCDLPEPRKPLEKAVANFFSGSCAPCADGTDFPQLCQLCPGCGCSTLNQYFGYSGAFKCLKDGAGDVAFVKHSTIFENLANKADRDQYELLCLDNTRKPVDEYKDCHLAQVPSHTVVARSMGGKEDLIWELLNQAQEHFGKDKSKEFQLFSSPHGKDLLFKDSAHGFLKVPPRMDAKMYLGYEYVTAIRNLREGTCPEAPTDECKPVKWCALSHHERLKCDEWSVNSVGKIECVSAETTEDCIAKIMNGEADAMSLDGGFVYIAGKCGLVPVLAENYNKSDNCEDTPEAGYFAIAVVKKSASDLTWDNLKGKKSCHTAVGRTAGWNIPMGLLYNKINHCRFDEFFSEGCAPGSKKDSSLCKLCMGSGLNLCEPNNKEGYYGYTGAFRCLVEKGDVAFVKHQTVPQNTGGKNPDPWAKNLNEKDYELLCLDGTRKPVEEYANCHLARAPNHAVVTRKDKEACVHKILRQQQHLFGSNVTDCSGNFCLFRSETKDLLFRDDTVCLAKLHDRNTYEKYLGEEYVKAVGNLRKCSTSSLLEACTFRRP
T2 sequence (P02768 25-609 limits assumed): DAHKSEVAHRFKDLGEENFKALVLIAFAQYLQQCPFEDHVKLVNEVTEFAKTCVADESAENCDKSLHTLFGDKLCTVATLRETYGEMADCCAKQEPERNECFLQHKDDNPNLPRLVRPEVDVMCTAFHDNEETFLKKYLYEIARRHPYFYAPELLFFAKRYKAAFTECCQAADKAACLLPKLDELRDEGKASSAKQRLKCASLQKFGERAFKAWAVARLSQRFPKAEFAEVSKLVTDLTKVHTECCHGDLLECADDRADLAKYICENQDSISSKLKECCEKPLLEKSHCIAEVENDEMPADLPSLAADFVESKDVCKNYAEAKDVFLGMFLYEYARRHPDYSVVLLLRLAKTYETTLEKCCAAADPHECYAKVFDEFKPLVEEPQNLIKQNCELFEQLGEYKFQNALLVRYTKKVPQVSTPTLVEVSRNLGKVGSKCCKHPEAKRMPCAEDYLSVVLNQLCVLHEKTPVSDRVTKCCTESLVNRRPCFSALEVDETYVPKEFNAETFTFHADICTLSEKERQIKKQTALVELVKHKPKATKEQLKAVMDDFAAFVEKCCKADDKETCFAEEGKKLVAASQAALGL

B1: recombinant anti-ENOX2 single chain variable region antibody carrying an S-tag, ScFv(S) (scFv)
scFv: EVKLQESGTEVVKPGASVKLSCKASGYIFTSYDIDWVRQTPEQGLEWIGWIFPGEGSTEYNEKFKGRATLSVDKSSSTAYMELTRLTSEDSAVYFCARGDYYRRYFDLWGQGTTVTVSSGGGGSGGGGSGGGGSENVLTQSPAIMSASPGERVTMTCSASSSIRYIYWYQQKPGSSPRLLIYDTSNVAPGVPFRFSGSGSGTSYSLTINRMEAEDAATYYCQEWSGYPYTFGGGTKLELKAKETAAAKFERQHMDS
notes: Derived from the hybridoma that makes the ENOX2-specific monoclonal antibody; also called pan ENOX2 recombinant scFv antibody; recombinant anti-ECTO-NOX antibody (single chain variable region ScFv)
In the case of B1, the binding result is recorded as “binds” in test [1] and “no binding” in test [2].
